Positions of bridges follow the written chain, without caps; N, C: chain ends. Non-standard residues stand in square brackets, D forms with d. *: point of attachment. S5 = C=CCCC[C@](C)(N)C(=O)O; Nle = CCCC[C@H](N)C(=O)O; For = O=C*

Ten molecules from patent US20140179593A1 (published 2014) can be followed below.

Test [1] has as its target T1, yDcn1^P (potentiating neddylation (PONY) domain of S. cerevisiae Dcn1) (Saccharomyces cerevisiae, UniProt Q12395 70-269).
T1 construct: NEDD8 co-E3; Expressed in E. coli
T1 sequence: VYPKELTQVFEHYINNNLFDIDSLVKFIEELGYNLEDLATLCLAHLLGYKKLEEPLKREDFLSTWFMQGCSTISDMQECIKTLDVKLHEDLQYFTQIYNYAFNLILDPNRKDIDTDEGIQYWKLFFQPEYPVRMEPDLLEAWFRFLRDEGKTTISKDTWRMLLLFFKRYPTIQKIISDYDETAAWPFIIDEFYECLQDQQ
Description: ITC, peptide titrated into Dcn1^P; against the unacetylated peptide. Here is the method:
(§1) To gain insights into mechanistic roles of Ubc12 N-terminal acetylation, isothermal titration calorimetry (ITC) was used to quantify interactions with peptides corresponding to the N-termini of yeast or human Ubc12.
(§2) Protein samples were buffer matched by desalting over a NAP-5 column (GE Healthcare) into 50 mM Hepes, 125 mM NaCl, 1 mM BME, pH 7.0 (ITC buffer). Peptides were dissolved by weight to a final concentration of 10 mM in ITC buffer and diluted further in ITC buffer as required for the experiments. […] The peptide ligands (4 mM) were constantly injected (1.5 μl). The interval time between each injection was 3 minutes and the duration of each injection was 3 seconds. […] Peptide ligands (250 μM) were constantly injected (2.5 μl). The interval time between each injection was three minutes and the duration of each injection was 5 seconds. […] The interval time between each injection was 3 minutes and the duration of each injection was 5 seconds. Obtained spectra were evaluated using Origin (V 7.0) to determine heats of binding and Kd values.

Test [2] addresses T2, yDcn1^P (potentiating neddylation / PONY domain of Saccharomyces cerevisiae Dcn1) (Saccharomyces cerevisiae, UniProt Q12395 70-269).
T2 construct: NEDD8 co-E3; Expressed in E. coli
T2 sequence: T1 sequence
Description: ITC, peptide titrated into yDcn1^P. Here is the method:
(§3) The formylated peptides lack the methyl portion of an acetyl, but retain the amide and are uncharged.
as §2

Test [3] has as its target hDcn2^P (PONY domain of human DCUN1D2) (Homo sapiens, UniProt Q6PH85 62-259). Description: ITC, peptide titrated into Dcn PONY domain. Here is the method:
as §2

The target of test [4] is T3, hDcn4^P (PONY domain of human DCUN1D4) (Homo sapiens, UniProt Q92564 102-292).
T3 sequence: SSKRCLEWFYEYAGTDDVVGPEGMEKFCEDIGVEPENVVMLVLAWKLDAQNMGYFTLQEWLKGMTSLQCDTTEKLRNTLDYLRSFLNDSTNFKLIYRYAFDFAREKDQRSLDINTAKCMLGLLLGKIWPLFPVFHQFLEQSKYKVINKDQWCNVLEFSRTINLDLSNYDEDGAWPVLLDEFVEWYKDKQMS
The test is described as follows: ITC, peptide titrated into Dcn PONY domain. The protocol:
as §2

Test [5] concerns the target T4, hDcn3^P (PONY domain of human DCUN1D3) (Homo sapiens, UniProt Q8IWE4 86-304).
T4 sequence: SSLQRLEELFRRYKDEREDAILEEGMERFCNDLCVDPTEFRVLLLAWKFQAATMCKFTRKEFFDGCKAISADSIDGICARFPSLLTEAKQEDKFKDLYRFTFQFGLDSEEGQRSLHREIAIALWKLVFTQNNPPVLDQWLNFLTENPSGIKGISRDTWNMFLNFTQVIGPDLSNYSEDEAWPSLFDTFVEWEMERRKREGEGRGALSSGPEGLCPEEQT
The test is described as follows: ITC, peptide titrated into Dcn PONY domain. The protocol:
as §2

In test [6] the target is T5, hDcn5^P (PONY domain of human DCUN1D5) (Homo sapiens, UniProt Q9BTE7 47-237).
T5 sequence: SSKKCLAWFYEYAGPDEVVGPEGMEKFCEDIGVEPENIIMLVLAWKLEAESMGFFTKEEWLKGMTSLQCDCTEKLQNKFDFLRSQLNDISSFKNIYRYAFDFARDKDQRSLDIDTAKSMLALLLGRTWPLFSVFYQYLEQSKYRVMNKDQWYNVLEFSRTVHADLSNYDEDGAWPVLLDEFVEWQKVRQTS
The test is described as follows: ITC, peptide titrated into Dcn PONY domain. Here is the method: as §2

Test [7] deals with T6, hDcn1^P (potentiating neddylation / PONY domain of human Dcn1, DCUN1D1) (Homo sapiens, UniProt Q96GG9 62-259).
T6 construct: also called DCUN1D1^P; SCCRO PONY domain
T6 sequence (Q96GG9 62-259): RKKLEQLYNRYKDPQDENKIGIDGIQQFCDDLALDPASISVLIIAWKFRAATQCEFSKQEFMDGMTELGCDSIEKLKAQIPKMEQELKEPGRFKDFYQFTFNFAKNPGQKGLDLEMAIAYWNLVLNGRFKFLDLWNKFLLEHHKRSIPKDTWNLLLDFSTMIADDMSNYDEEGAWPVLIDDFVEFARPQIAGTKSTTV
Description: ITC, peptide titrated into Dcn PONY domain. The protocol:
as §2

Test [8] deals with T3, hDcn4^P (PONY domain of human DCUN1D4). The test is described as follows: ITC, two values in the cell, second value. Here is the method: as §2
The target is the same in test [9]. Description: ITC, two values in the cell, first value. The protocol:
as §2

Test [10] has as its target T7, hDcn1^P (residues 62 to the C-terminal residue 259 of hDcn1, aka SCCRO or DCUN1D1) (Homo sapiens, UniProt Q96GG9 62-259).
T7 construct: Expressed as a GST fusion in E. coli; GST released by TEV protease; also called DCUN1D1^P; PONY domain of hDcn1
Description: ITC, peptide titrated into Dcn1^P; against the unacetylated peptide. Here is the method:
as §1, §2

For test [11], the target named is T7, hDcn1^P (residues 62 to the C-terminal …). Description: ITC; against Acetyl-hUbc12^1-26. Here is the method:
as §3, §2

Test [12] deals with T8, hDcn1^P (PONY domain of human Dcn1 / DCUN1D1 / SCCRO, residues 62 to 259) (Homo sapiens, UniProt Q96GG9 62-259).
T8 construct: NEDD8 co-E3; Expressed as a GST fusion in E. coli; GST was removed with TEV protease; also called DCUN1D1^P
T8 sequence (Q96GG9 62-259): as above
Description: ITC, peptide titrated into hDcn1^P. Here is the method: as §3, §2

In test [13] the target is T7, hDcn1^P (residues 62 to the C-terminal …). Description: crystal structure. The protocol: The crystals grew as multiple clusters. Single crystals of the complex were obtained by streak-seeding into 17% PEG1500, 0.1 M MIB pH 4.0. The crystals were soaked in step gradients for 1-5 minutes, with sequential soaks containing well solution supplemented with 10%, 20%, and 30% ethylene glycol prior to flash-freezing in liquid nitrogen. Reflection data were collected at beamline 8.2.2 at the Advanced Light Source.

T7 sequence (Q96GG9 62-259): as above
Sequence of hDcn2^P (PONY domain of human DCUN1D2) (Q6PH85 62-259 limits assumed): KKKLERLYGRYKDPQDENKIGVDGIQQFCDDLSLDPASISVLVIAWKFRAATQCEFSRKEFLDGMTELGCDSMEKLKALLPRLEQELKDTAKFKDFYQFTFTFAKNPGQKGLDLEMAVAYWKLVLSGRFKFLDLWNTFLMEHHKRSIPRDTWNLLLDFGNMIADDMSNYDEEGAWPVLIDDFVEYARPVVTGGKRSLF

B1: Acetyl-yUbc12^1-24 (peptide)
peptide: Ac-MLKLRQLQKKKQKENENSSSIQPN-NH2
notes: Synthetic peptide; also called yUbc12Ac1-24; N-terminally acetylated S. cerevisiae Ubc12^1-24
B1: the “increase in affinity by N-terminal acetylation” value in test [1] is approximately 100 fold.

B2: Formyl-yUbc12^1-24 peptide (peptide)
peptide: For-MLKLRQLQKKKQKENENSSSIQPN-NH2
SMILES: CC[C@H](C)[C@H](NC(=O)[C@H](CO)NC(=O)[C@H](CO)NC(=O)[C@H](CO)NC(=O)[C@H](CC(N)=O)NC(=O)[C@H](CCC(=O)O)NC(=O)[C@H](CC(N)=O)NC(=O)[C@H](CCC(=O)O)NC(=O)[C@H](CCCCN)NC(=O)[C@H](CCC(N)=O)NC(=O)[C@H](CCCCN)NC(=O)[C@H](CCCCN)NC(=O)[C@H](CCCCN)NC(=O)[C@H](CCC(N)=O)NC(=O)[C@H](CC(C)C)NC(=O)[C@H](CCC(N)=O)NC(=O)[C@H](CCCNC(=N)N)NC(=O)[C@H](CC(C)C)NC(=O)[C@H](CCCCN)NC(=O)[C@H](CC(C)C)NC(=O)[C@H](CCSC)NC=O)C(=O)N[C@@H](CCC(N)=O)C(=O)N1CCC[C@H]1C(=O)N[C@@H](CC(N)=O)C(N)=O
notes: Synthetic peptide
B2: in [2], the Kd was 7.46 µM, the ΔH was 2.82 kcal/mol and the ΔS was 33.4 cal/mol/deg.

B3: hUbc12^Ac1-26 (peptide)
peptide: Ac-MIKLFSLKQQKKEEESAGGTKGSSKK-NH2
notes: Synthetic peptide of the N-terminus of human Ubc12; also called Acetyl-hUbc12^1-26
Regarding B3, the Kd in [3] was 0.735 µM; in test [4] it was 10 µM; in test [5], 10.8 µM; in test [6] it was 8.6 µM; in [7], 1.5 µM.

B4: yUbc12^Ac1-24 (peptide)
peptide: Ac-MLKLRQLQKKKQKENENSSSIQPN-NH2
notes: Synthetic peptide of the N-terminus of yeast Ubc12; also called Acetyl-yUbc12^1-24
On to B4, for which the Kd in [8] stood at 13 µM; in [9] it was 1.2 µM; in [3], 0.204 µM; in [5], 3.4 µM; in test [6] it was 2.4 µM; in test [7], 0.311 µM.

B5: Acetyl-hUbc12^1-26 (peptide)
peptide: Ac-MIKLFSLKQQKKEEESAGGTKGSSKK-NH2
notes: Synthetic peptide; also called hUbc12Ac1-26
Turning to B5, in test [10], the “increase in affinity by N-terminal acetylation” value was approximately 100 fold.

B6: Formyl-hUbc12^1-26 (peptide)
peptide: For-MIKLFSLKQQKKEEESAGGTKGSSKK-NH2
SMILES: CC[C@H](C)[C@H](NC(=O)[C@H](CCSC)NC=O)C(=O)N[C@@H](CCCCN)C(=O)N[C@@H](CC(C)C)C(=O)N[C@@H](Cc1ccccc1)C(=O)N[C@@H](CO)C(=O)N[C@@H](CC(C)C)C(=O)N[C@@H](CCCCN)C(=O)N[C@@H](CCC(N)=O)C(=O)N[C@@H](CCC(N)=O)C(=O)N[C@@H](CCCCN)C(=O)N[C@@H](CCCCN)C(=O)N[C@@H](CCC(=O)O)C(=O)N[C@@H](CCC(=O)O)C(=O)N[C@@H](CCC(=O)O)C(=O)N[C@@H](CO)C(=O)N[C@@H](C)C(=O)NCC(=O)NCC(=O)N[C@H](C(=O)N[C@@H](CCCCN)C(=O)NCC(=O)N[C@@H](CO)C(=O)N[C@@H](CO)C(=O)N[C@@H](CCCCN)C(=O)N[C@@H](CCCCN)C(N)=O)[C@@H](C)O
notes: Synthetic peptide; also called N-terminally formylated human Ubc12 peptide; hUbc12^Formyl-1-26
On to B6, for which, in [11], the “fold change of Kd against the acetylated peptide” value is approximately 9 fold.

B7: Formyl-hUbc12^1-26 peptide (peptide)
peptide: For-MIKLFSLKQQKKEEESAGGTKGSSKK-NH2
SMILES: CC[C@H](C)[C@H](NC(=O)[C@H](CCSC)NC=O)C(=O)N[C@@H](CCCCN)C(=O)N[C@@H](CC(C)C)C(=O)N[C@@H](Cc1ccccc1)C(=O)N[C@@H](CO)C(=O)N[C@@H](CC(C)C)C(=O)N[C@@H](CCCCN)C(=O)N[C@@H](CCC(N)=O)C(=O)N[C@@H](CCC(N)=O)C(=O)N[C@@H](CCCCN)C(=O)N[C@@H](CCCCN)C(=O)N[C@@H](CCC(=O)O)C(=O)N[C@@H](CCC(=O)O)C(=O)N[C@@H](CCC(=O)O)C(=O)N[C@@H](CO)C(=O)N[C@@H](C)C(=O)NCC(=O)NCC(=O)N[C@H](C(=O)N[C@@H](CCCCN)C(=O)NCC(=O)N[C@@H](CO)C(=O)N[C@@H](CO)C(=O)N[C@@H](CCCCN)C(=O)N[C@@H](CCCCN)C(N)=O)[C@@H](C)O
notes: Synthetic peptide; also called hUbc12^Formyl-1-26
In test [12], B7 yielded a Kd of 9.71 µM, a ΔH of -4.89 kcal/mol and a ΔS of 5.79 cal/mol/deg.

As for Ac-MIKLFSLKQQKK-NH2 (also called Acetyl-hUbc12^1-12) [hUbc12^Ac1-12], the figures for the Kd in test [4] and in test [5] were 13.1 µM and 6.3 µM, respectively.

B8: yUbc12^Ac1-12 (NorLeu) 6, 10 (peptide)
peptide: Ac-[Nle]LKLR[S5]LQK[S5]KQ-NH2
modifications: staple 6-10
SMILES: CCCC[C@H](NC(C)=O)C(=O)N[C@@H](CC(C)C)C(=O)N[C@@H](CCCCN)C(=O)N[C@@H](CC(C)C)C(=O)N[C@@H](CCCNC(=N)N)C(=O)N[C@@]1(C)CCCC=CCCC[C@@](C)(C(=O)N[C@@H](CCCCN)C(=O)N[C@@H](CCC(N)=O)C(N)=O)NC(=O)[C@H](CCCCN)NC(=O)[C@H](CCC(N)=O)NC(=O)[C@H](CC(C)C)NC1=O
As for B8, the Kd is 0.075 µM in test [3]; 4.3 µM in test [4]; 1.76 µM in [5]; 4.78 µM in test [6]; 0.068 µM in [7].

B9: Acetyl-hUbc12^1-15 (peptide)
peptide: Ac-MIKLFSLKQQKKEEE-NH2
notes: Peptide of the hCul1^WHB-hDcn1^P-Acetyl-hUbc12^1-15 crystal structure; also called N-terminally acetylated human Ubc12^1-15
Consider B9, for which the binding result in [13] was “binds”.
